Changes are numbered by the printed parent chain.
Legend:
[1] = format: biochemical
Method: To analyze these engineered proteins for activity in higher temperatures, the in vitro enzyme assay in Example 1 was modified to specify pre-heating all of the assay components to the desired temperature for 5 minutes before combining the components and then maintaining the reaction at the desired temperature for the duration of the reaction. To normalize the assay measurements, quizalofop-P was used as the substrate for the reaction and enzyme activity was normalized based on the 25° C. readings. Using these parameters, the temperature at which the enzyme activity was half of maximum (T1/2) was calculated. The T1/2 for MON-HT55 was calculated to be 29° C., and the T1/2 for wild-type RdpA was calculated to be 38° C. (FIG. 2A).
Enzyme activity over a range of temperatures was analyzed in-depth for MON-HT1, MON-HT2, MON-HT7, and MON-HT8. These assays were conducted as described above. Quizalofop-P or 2,4-D was used as the substrate for these reactions and activity was normalized based on the activity of the wild-type enzyme at 25° C. The activity curves obtained are presented in FIG. 2B (with quizalofop-P as the substrate) and FIG. 2C (with 2,4-D as the substrate). Using quizalofop-P as the substrate, MON-HT55 was the most temperature sensitive, with a T1/2 of 29° C. […] MON-HTI was slightly less temperature sensitive, with a T1/2 about 1° C. higher than the wild-type enzyme.

[2] = tested on: F1 hybrid maize plants; experiment: trait efficacy field trial, quizalofop-P pressure screening, F1 hybrid; format: in vivo; details: crop injury percentage; for 4X Qizalofop-P CIPV4 / 4X Qizalofop-P CIPV8: 0.32 lb ai/acre at VE-V2, V4, V8; for 8X Qizalofop-P CIPV4 / 8X Qizalofop-P CIPV8: 0.64 lb ai/acre at VE-V2, V4, V8; for 16X Qizalofop-P CIPV4 / 16X Qizalofop-P CIPV8: 1.28 lb ai/acre at VE-V2, V4, V8
Method: (§1) Separate trait efficacy field trials for quizalofop-P and 2,4-D pressure screening were conducted at one location each with F1 hybrid transgenic plants produced by crossing an inbred plant containing maize event MON89034 with an R1 plant containing MON-HT1, MON-HT2, MON-HT8, MON-HT9, and MON-HT10 with and without operably linked CTP sequences. Transgenic F1 hybrid plants containing maize events NK603×MON89034 were used for comparison as a control.
In the trait efficacy field trial for quizalofop-P tolerance, one of three herbicide treatments was used: (1) quizalofop-P (Assure II) at 0.32 lb ai/acre (4×) plus 0.25% v/v non-ionic surfactant (NIS) applied at VE-V2 growth stage followed by the same at V4 growth stage followed by the same at V8 growth stage; (2) quizalofop-P at 0.64 lb ai/acre (8×) plus 0.25% v/v NIS applied at VE-V2 growth stage followed by the same at V4 growth stage followed by the same at V8 growth stage; or (3) quizalofop-P at 1.28 lb ai/acre (16×) plus 0.25% v/v NIS applied at VE-V2 growth stage followed by the same at V4 growth stage followed by the same at V8 growth stage. Plots were visually rated as above. […] The injury rating for the control plants after all quizalofop-P application was 100%. Error was calculated using LSD (0.05).

[3] = tested on: F1 hybrid maize plants; experiment: trait efficacy field trial, 2,4-D pressure screening, F1 hybrid; format: in vivo; details: crop injury percentage; for 4X 2,4-D CIPV4 / 4X 2,4-D CIPV8: 4 lb ae/acre at VE-V2, V4, V8; for 8X 2,4-D CIPV4 / 8X 2,4-D CIPV8: 8 lb ae/acre at VE-V2, V4, V8; for 16X 2,4-D CIPV4 / 16X 2,4-D CIPV8: 16 lb ae/acre at VE-V2, V4, V8
Method: as §1
Three herbicide treatments were used in the trait efficacy field trial for 2,4-D tolerance: (1) 2,4-D amine at 4 lb ac/acre (4×) plus 0.25% v/v NIS applied to VE-V2 followed by V4 followed by V8; (2) 2,4-D amine at 8 lb ac/acre (8×) plus 0.25% v/v NIS applied to VE-V2 followed by V4followed by V8 maize; or (3) 2,4-D amine at 16 lb ac/acre (16×) plus 0.25% v/v NIS applied to VE-V2 followed by V4 followed by V8. Plots were visually rated as above.
The injury rating for the control plants after all 2,4-D applications ranged from 80% to 96.25%. At the highest rate of 2,4-D (16×) applied through V8, the plants containing MON-HT1 or MON-HT2 operably linked to any of the three CTPs (A, B, or C) had better tolerance than plants containing MON-HT1 or MON-HT2 not operably linked to a CTP. Plants containing MON-HT1, MON-HT2, or MON-HT8 with or without an operably linked CTP had better tolerance to 2,4-D at all applications tested compared to plants containing either MON-HT9 or MON-HT10 with an operably linked ‘A’ CTP. Over the range of 2,4-D applications the relative ranking of tolerance was: plants containing MON-HT1 had better tolerance than plants containing MON-HT2 which were in turn better than plants containing MON-HT8. […] Error was calculated using LSD (0.05).

[4] = tested on: mRNA transcribed from the transgene cassette; experiment: Quantigene analysis of transgene mRNA expression in leaf samples; details: normalized to maize housekeeping genes, average of eight samples
Source text: Leaf samples were collected from the plants containing transgene cassettes encoding MON-HT1, MON-HT2, and MON-HT8 with and without CTP sequences to determine expression of the mRNA transcribed from the transgene cassette encoding the engineered proteins. Quantigene® analysis was done on the leaf sample extracts to determine mRNA expression of the transgene cassette. For these assays, the probe was to the common 3′-UTR sequence present in each expression cassette used to generate the transgenic plants. Relative expression was calculated by normalizing to maize housekeeping genes. A leaf sample was collected from each of eight plants for each construct configuration used to make the transgenic plants, and the reported relative mRNA expression data is an average of the eight samples with standard error.

B1: MON-HT7: engineered oxygenase protein, amino acid sequence SEQ ID NO:34 (protein)
chain: MHAALTPLTNKYRFIDVQPLTGVLGAEITGVDLREPLDDSTWNEILDAFHTYQVIYFPGQAITNEQHIAFSRRFGPVDPVPLLKSIEGYPEVQMIRREANESGRVIGDDWHADSTFLDAPPAAVVMRAIEVPEYGGDTGFLSMYSAWETLSPTMQATIEGLNVVHSATKVFGSLYQATNWRFSNTSVKVMDVDAGDRETVHPLVVTHPVTGRRALYCNQVYCQKIQGMTDAESKSLLQFLYEHATKFDFTCRVRWKKDQVLVWDNLCTMHRSVPDYAGKFRYLTRTTVAGDKPSR
T1/2, temperature at which the enzyme activity was half of maximum [1]: 47 °C
temperature sensitivity compared with the wild-type enzyme ([1]; substrate 2,4-D, lower T1/2 than wild-type): slightly more temperature sensitive

B2: MON-HT1: engineered oxygenase protein, amino acid sequence SEQ ID NO:14 (protein)
chain: B1 chain with L82I, G103S, V105F, A112T, S272A
4X Qizalofop-P CIPV4 ([2]; CTP A): 0
4X Qizalofop-P CIPV8 ([2]; CTP A): 7.5
8X Qizalofop-P CIPV4 ([2]; CTP A): 2.5
8X Qizalofop-P CIPV8 ([2]; CTP A): 10
16X Qizalofop-P CIPV4 ([2]; CTP A): 5
16X Qizalofop-P CIPV8 ([2]; CTP A): 15
4X Qizalofop-P CIPV4 ([2]; CTP B): 2.5
4X Qizalofop-P CIPV8 ([2]; CTP B): 5
8X Qizalofop-P CIPV4 ([2]; CTP B): 2.5
8X Qizalofop-P CIPV8 ([2]; CTP B): 7.5
16X Qizalofop-P CIPV4 ([2]; CTP B): 2.5
16X Qizalofop-P CIPV8 ([2]; CTP B): 20
4X Qizalofop-P CIPV4 ([2]; CTP C): 0
4X Qizalofop-P CIPV8 ([2]; CTP C): 5
8X Qizalofop-P CIPV4 ([2]; CTP C): 2.5
8X Qizalofop-P CIPV8 ([2]; CTP C): 10
16X Qizalofop-P CIPV4 ([2]; CTP C): 5
16X Qizalofop-P CIPV8 ([2]; CTP C): 20
4X Qizalofop-P CIPV4 ([2]; no CTP): 2.5
4X Qizalofop-P CIPV8 ([2]; no CTP): 10
8X Qizalofop-P CIPV4 ([2]; no CTP): 10
8X Qizalofop-P CIPV8 ([2]; no CTP): 22.5
16X Qizalofop-P CIPV4 ([2]; no CTP): 22.5
16X Qizalofop-P CIPV8 ([2]; no CTP): 37.5
4X 2,4-D CIPV4 ([3]; CTP A): 5
4X 2,4-D CIPV8 ([3]; CTP A): 5
8X 2,4-D CIPV4 ([3]; CTP A): 5
8X 2,4-D CIPV8 ([3]; CTP A): 10
16X 2,4-D CIPV4 ([3]; CTP A): 7.5
16X 2,4-D CIPV8 ([3]; CTP A): 15
4X 2,4-D CIPV4 ([3]; CTP B): 5
4X 2,4-D CIPV8 ([3]; CTP B): 5
8X 2,4-D CIPV4 ([3]; CTP B): 5
8X 2,4-D CIPV8 ([3]; CTP B): 10
16X 2,4-D CIPV4 ([3]; CTP B): 10
16X 2,4-D CIPV8 ([3]; CTP B): 15
4X 2,4-D CIPV4 ([3]; CTP C): 5
4X 2,4-D CIPV8 ([3]; CTP C): 5
8X 2,4-D CIPV4 ([3]; CTP C): 5
8X 2,4-D CIPV8 ([3]; CTP C): 10
16X 2,4-D CIPV4 ([3]; CTP C): 10
16X 2,4-D CIPV8 ([3]; CTP C): 17.5
4X 2,4-D CIPV4 ([3]; no CTP): 5
4X 2,4-D CIPV8 ([3]; no CTP): 5
8X 2,4-D CIPV4 ([3]; no CTP): 7.5
8X 2,4-D CIPV8 ([3]; no CTP): 10
16X 2,4-D CIPV4 ([3]; no CTP): 10
16X 2,4-D CIPV8 ([3]; no CTP): 22.5
Relative Expression ([4]; CTP A): 7.80
Relative Expression ([4]; CTP B): 5.95
Relative Expression ([4]; CTP C): 3.82
Relative Expression ([4]; no CTP): 4.31
T1/2, temperature at which the enzyme activity was half of maximum [1]: 42 °C
T1/2 higher than the wild-type enzyme [1]: about 1 °C

B3: MON-HT55: engineered oxygenase protein, amino acid sequence SEQ ID NO:11 (protein)
chain: MHAALSPLSQRFERIAVQPLTGVLGAEITGVDLREPLDDSTWNEILDAFHTYQVIYFPGQAITNEQHIAFSRRFGPVDPVPLLKSIEGYPEVQMIRREANESGRVIGENWHTDSTFLDAPPAAVVMYAKEIPPYGGDTLFTSMYTAWETLSPTMQATIEGLNVVHSATRVFGSLYQAQNRRFSNTSVKVMDVDAGDRETVHPLVVTHPETGRKGLYVNQVYCQRIEGMSEKESEPLLSFLFAHATKPEFTCRVRWQEGDVLVWDNLCTQHYAVPDYAGKFRYLTRTTVGGVRPAR
T1/2, temperature at which the enzyme activity was half of maximum [1]: 29 °C

B4: MON-HT9: engineered oxygenase protein, amino acid sequence SEQ ID NO:40 (protein)
chain: MHAALTPLTNKYRFIDVQPLTGVLGAEITGVDLREPLDDSTWNEILDAFHTYQVIYFPAQQITNEQHISFSRRFGPVDPVPLLKSIEGYPEVQMIRREANESGRILGDDWHTDSTFLDAPPAAVVMRAIEVPEYGGDTGFLSMYSAWDTLSDTMKATIEGLNVVHSATRVFGSLYQAQNWRFSNTSVKVMDVDAGDRETVHPLVVSHPVTGRRALYCNQVYCQRIEGMTDAESKCLLQFLYEHATKFDFTCRVRWKKDQVLVWDNLCTMHRAVPDYAGKFRYLTRTTVAGDRPAR
4X Qizalofop-P CIPV4 ([2]; CTP A): 0
4X Qizalofop-P CIPV8 ([2]; CTP A): 5
8X Qizalofop-P CIPV4 ([2]; CTP A): 2.5
8X Qizalofop-P CIPV8 ([2]; CTP A): 15
16X Qizalofop-P CIPV4 ([2]; CTP A): 7.5
16X Qizalofop-P CIPV8 ([2]; CTP A): 20
4X 2,4-D CIPV4 ([3]; CTP A): 17.5
4X 2,4-D CIPV8 ([3]; CTP A): 55
8X 2,4-D CIPV4 ([3]; CTP A): 25
8X 2,4-D CIPV8 ([3]; CTP A): 75
16X 2,4-D CIPV4 ([3]; CTP A): 45
16X 2,4-D CIPV8 ([3]; CTP A): 90

B5: MON-HT10: engineered oxygenase protein, amino acid sequence SEQ ID NO:43 (protein)
chain: B4 chain with T21C, A59G, Q61A, S69A, R271L, A277D, R292K, A294S
4X Qizalofop-P CIPV4 ([2]; CTP A): 0
4X Qizalofop-P CIPV8 ([2]; CTP A): 5
8X Qizalofop-P CIPV4 ([2]; CTP A): 2.5
8X Qizalofop-P CIPV8 ([2]; CTP A): 10
16X Qizalofop-P CIPV4 ([2]; CTP A): 5
16X Qizalofop-P CIPV8 ([2]; CTP A): 21
4X 2,4-D CIPV4 ([3]; CTP A): 32.5
4X 2,4-D CIPV8 ([3]; CTP A): 70
8X 2,4-D CIPV4 ([3]; CTP A): 55
8X 2,4-D CIPV8 ([3]; CTP A): 87.5
16X 2,4-D CIPV4 ([3]; CTP A): 45
16X 2,4-D CIPV8 ([3]; CTP A): 90
